Test results taken from paper PMC5750225, “Inhibition of Poly(A)-binding protein with a synthetic RNA mimic reduces pain sensitization in mice”.

Biological target: PABP (PABPC1) (Homo sapiens, UniProt P11940 1-383)
Experiment: fluorescence polarization/anisotropy; text gives nM; Fig. 2d legend prints μM; FP: 50 mM HEPES, 5 mM EDTA, 250 mM KCl, 10 mM DTT, 0.5 mg/mL BSA, 0.05% Tween-20, 0.1 mg/mL yeast RNA, 0.5 nM Cy3-RNA (pH and temperature not stated). EMSA: 10
Settings: protein: recombinant

PABP (PABPC1), sequence (P11940 1-383): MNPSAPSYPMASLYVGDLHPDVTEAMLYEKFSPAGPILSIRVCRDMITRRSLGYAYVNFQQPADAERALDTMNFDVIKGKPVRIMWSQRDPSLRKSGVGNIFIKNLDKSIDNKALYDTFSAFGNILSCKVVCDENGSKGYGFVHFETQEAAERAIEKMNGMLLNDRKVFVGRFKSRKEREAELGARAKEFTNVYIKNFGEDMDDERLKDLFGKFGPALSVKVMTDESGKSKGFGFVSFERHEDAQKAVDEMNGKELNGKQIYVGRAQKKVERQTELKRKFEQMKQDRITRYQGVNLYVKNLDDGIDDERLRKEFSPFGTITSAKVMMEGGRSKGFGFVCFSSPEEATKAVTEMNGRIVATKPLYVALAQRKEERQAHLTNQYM

Q: Which Kd does the source give for AAAAAAAAAAAA (ssRNA) [unmodified 12-base Poly(A) RNA] here?
A: 261 ± 54 nM

B1: Poly(A) SPOT-ON (XNA)
strand: AAAAAAAAAAAA
modifications: 2'-O-methyl throughout; phosphorothioate at the 5' and 3' terminal linkages (A*AAAAAAAAAA*A)
Q: With B1 as the binder, how does the Kd read?
A: 301 ± 41 nM
